Each block holds one binder with its values, some of them ahead of it.
How the values were obtained:
Assay in all cases: cell-based or functional assay
[1] = biological target: T1, human FcγRIIa-H variant (Histidine at amino acid 131) (human, UniProt P12318 34-317)
T1 sequence (looked up): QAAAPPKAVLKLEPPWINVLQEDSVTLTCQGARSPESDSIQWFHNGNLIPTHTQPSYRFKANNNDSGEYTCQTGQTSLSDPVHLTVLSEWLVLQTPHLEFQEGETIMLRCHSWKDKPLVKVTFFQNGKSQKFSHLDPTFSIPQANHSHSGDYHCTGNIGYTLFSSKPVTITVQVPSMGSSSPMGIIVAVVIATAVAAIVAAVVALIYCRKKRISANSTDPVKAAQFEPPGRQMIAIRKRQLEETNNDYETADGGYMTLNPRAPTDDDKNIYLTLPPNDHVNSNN

FcγRIIIa [2] = biological target: T2, FcγRIIIa (UniProt P08637 17-254)
T2 sequence (P08637 17-254 F176V limits assumed): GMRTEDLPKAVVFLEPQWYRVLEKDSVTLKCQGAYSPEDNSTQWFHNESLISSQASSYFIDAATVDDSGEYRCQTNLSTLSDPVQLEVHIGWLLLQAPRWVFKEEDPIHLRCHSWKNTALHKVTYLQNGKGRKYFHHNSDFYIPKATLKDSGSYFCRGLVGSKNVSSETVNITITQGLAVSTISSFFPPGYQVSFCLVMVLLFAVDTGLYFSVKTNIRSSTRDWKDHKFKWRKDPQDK

[3] = biological target: T1, human FcγRIIa-H variant (Histidine at …); remark: listed apart in the source
FcγRIIIa [4] = biological target: T2, FcγRIIIa; remark: listed apart in the source

EC50 (nM) Mean, FcγRIIa signaling in ADCP reporter assay (Raji target cells, Jurkat/FcγRIIa-H effector cells, luciferase) [1]: 7.8 nM | EC50 (nM) Mean, FcγRIIIa signaling in ADCC reporter assay (Raji target cells, Jurkat/FcγRIIIa effector cells, luciferase) (FcγRIIIa [2]): 0.86 nM
B1: Fc-antigen binding domain construct 43 (CD20) (antibody, human IgG1, kappa)
heavy 1: QVQLVQSGAEVKKPGSSVKVSCKASGYAFSYSWINWVRQAPGQGLEWMGRIFPGDGDTDYNGKFKGRVTITADKSTSTAYMELSSLRSEDTAVYYCARNVFDGYWLVYWGQGTLVTVSSASTKGPSVFPLAPSSKSTSGGTAALGCLVKDYFPEPVTVSWNSGALTSGVHTFPAVLQSSGLYSLSSVVTVPSSSLGTQTYICNVNHKPSNTKVDKKVEPKSCDKTHTCPPCPAPELLGGPSVFLFPPKPKDTLMISRTPEVTCVVVDVSHEDPEVKFNWYVDGVEVHNAKTKPREEQYNSTYRVVSVLTVLHQDWLNGKEYKCKVSNKALPAPIEKTISKAKGQPREPQVYTLPPCRDKLTKNQVSLWCLVKGFYPSDIAVEWESNGQPENNYKTTPPVLDSDGSFFLYSKLTVDKSRWQQGNVFSCSVMHEALHNHYTQKSLSLSPGKGGGGGGGGGGGGGGGGGGGGDKTHTCPPCPAPELLGGPSVFLFPPKPKDTLMISRTPEVTCVVVDVSHEDPEVKFNWYVDGVEVHNAKTKPREEQYNSTYRVVSVLTVLHQDWLNGKEYKCKVSNKALPAPIEKTISKAKGQPREPQVYTLPPSRKELTKNQVSLTCLVKGFYPSDIAVEWESNGQPENNYKTTPPVLKSDGSFFLYSKLTVDKSRWQQGNVFSCSVMHEALHNHYTQKSLSLSPGQ
chain: not shown
heavy 2: not shown
light: DIVMTQTPLSLPVTPGEPASISCRSSKSLLHSNGITYLYWYLQKPGQSPQLLIYQMSNLVSGVPDRFSGSGSGTDFTLKISRVEAEDVGVYYCAQNLELPYTFGGGTKVEIKRTVAAPSVFIFPPSDEQLKSGTASVVCLLNNFYPREAKVQWKVDNALQSGNSQESVTEQDSKDSTYSLSSTLTLSKADYEKHKVYACEVTHQGLSSPVTKSFNRGEC

EC50 (nM) Mean, FcγRIIa signaling in ADCP reporter assay (Raji target cells, Jurkat/FcγRIIa-H effector cells, luciferase) [1]: 0.17 nM | EC50 (nM) Mean, FcγRIIIa signaling in ADCC reporter assay (Raji target cells, Jurkat/FcγRIIIa effector cells, luciferase) (FcγRIIIa [2]): 0.055 nM
B2: Fc-antigen binding domain construct 44 (CD20) (antibody, human IgG1, kappa)
heavy 1: QVQLVQSGAEVKKPGSSVKVSCKASGYAFSYSWINWVRQAPGQGLEWMGRIFPGDGDTDYNGKFKGRVTITADKSTSTAYMELSSLRSEDTAVYYCARNVFDGYWLVYWGQGTLVTVSSASTKGPSVFPLAPSSKSTSGGTAALGCLVKDYFPEPVTVSWNSGALTSGVHTFPAVLQSSGLYSLSSVVTVPSSSLGTQTYICNVNHKPSNTKVDKKVEPKSCDKTHTCPPCPAPELLGGPSVFLFPPKPKDTLMISRTPEVTCVVVDVSHEDPEVKFNWYVDGVEVHNAKTKPREEQYNSTYRVVSVLTVLHQDWLNGKEYKCKVSNKALPAPIEKTISKAKGQPREPQVYTLPPCRDKLTKNQVSLWCLVKGFYPSDIAVEWESNGQPENNYKTTPPVLDSDGSFFLYSKLTVDKSRWQQGNVFSCSVMHEALHNHYTQKSLSLSPGKGGGGGGGGGGGGGGGGGGGGDKTHTCPPCPAPELLGGPSVFLFPPKPKDTLMISRTPEVTCVVVDVSHEDPEVKFNWYVDGVEVHNAKTKPREEQYNSTYRVVSVLTVLHQDWLNGKEYKCKVSNKALPAPIEKTISKAKGQPREPQVYTLPPSRKELTKNQVSLTCLVKGFYPSDIAVEWESNGQPENNYKTTPPVLKSDGSFFLYSKLTVDKSRWQQGNVFSCSVMHEALHNHYTQKSLSLSPGQKGGGGGGGGGGGGGGGGGGGGDKTHTCPPCPAPELLGGPSVFLFPPKPKDTLMISRTPEVTCVVVDVSHEDPEVKFNWYVDGVEVHNAKTKPREEQYNSTYRVVSVLTVLHQDWLNGKEYKCKVSNKALPAPIEKTISKAKGQPREPQVYTLPPSRKELTKNQVSLTCLVKGFYPSDIAVEWESNGQPENNYKTTPPVLKSDGSFFLYSKLTVDKSRWQQGNVFSCSVMHEALHNHYTQKSLSLSPGQ
chain: not shown
heavy 2: not shown
light: B1 light

EC50 (nM) Mean, FcγRIIa signaling in ADCP reporter assay (HEK-PD-L1 target cells, Jurkat/FcγRIIa-H effector cells, luciferase) [3]: 0.037 nM | EC50 (nM) Mean, FcγRIIIa signaling in ADCC reporter assay (HEK-PD-L1 target cells, Jurkat/FcγRIIIa effector cells, luciferase) (FcγRIIIa [4]): 0.028 nM
B3: Fc-antigen binding domain construct 43 (PD-L1) (antibody, human IgG1, lambda)
heavy 1: not shown
chain: not shown
heavy 2: not shown
light: QSALTQPASVSGSPGQSITISCTGTSSDVGGYNYVSWYQQHPGKAPKLMIYDVSNRPSGVSNRFSGSKSGNTASLTISGLQAEDEADYYCSSYTSSSTRVFGTGTKVTVLGQPKANPTVTLFPPSSEELQANKATLVCLISDFYPGAVTVAWKADGSPVKAGVETTKPSKQSNNKYAASSYLSLTPEQWKSHRSYSCQVTHEGSTVEKTVAPTECS

EC50 (nM) Mean, FcγRIIa signaling in ADCP reporter assay (HEK-PD-L1 target cells, Jurkat/FcγRIIa-H effector cells, luciferase) [3]: 0.033 nM
B4: Fc-antigen binding domain construct 44 (PD-L1) (antibody, human IgG1, lambda)
heavy 1: not shown
chain: not shown
heavy 2: not shown
light: B3 light
